These results are taken from publication PMC3935999, “Post-Translational Modifications Modulate Ligand Recognition by the Third PDZ Domain of the MAGUK Protein PSD-95” (PLoS ONE, 2014).

The target of experiment [1] is KKETAV hexapeptide (optimised consensus C-terminal ligand of PSD-95 PDZ3). In words: ITC (quoted from ref. 19, Saro et al. 2007). As to conditions: pH 6.0, 25 °C, 10 mM NaCl, 20 mM MES; cited from earlier work.
Experiment [2] shares this target. In words: ITC (MicroCal ITC-200). As to conditions: pH 7.5, 25 °C, no added salt stated (50 mM potassium phosphate only).
Experiment [3] addresses CRIPT (Homo sapiens). Kind of experiment: ITC. As to conditions: cited from earlier work.
In experiment [4] the target is CRIPT (Homo sapiens). In words: ITC. The settings on record: cited from earlier work. The source holds these as a separate data set.
The target of experiment [5] is CRIPT (Homo sapiens). In words: ITC. As to conditions: cited from earlier work. This is another data set of the same source.
In experiment [6] the target is KKETAV peptide. In words: ITC. As to conditions: cited from earlier work.
Experiment [7] addresses T1, PDZ3 domain of PSD-95 (wild type, residues 302-403) (UniProt P31016 302-403).
T1 construct: Postsynaptic density protein-95 (PSD-95; SAP-90; DLG-4), third PDZ domain with the α3 helix, residues 302-403 of the full PSD-95 protein; PDB 1BE9 is a longer construct of the same domain; 15N-labelled for NMR; also called PSD-95-PDZ3; WT-PDZ3; source: E. coli BL21/DE3, purified
In words: ITC; KKETAV (900 µM; 3 mM for D332P-PDZ3) injected into the protein in the cell (70 µM; 200 µM for D332P-PDZ3); 25°C; 50 mM potassium phosphate pH 7.5; single set of identical sites model. The settings on record: both partners purified. On the technique in general: ITC needs no label: the signal is the heat of the interaction.

Experiment [8] deals with T2, Δ10ct-PDZ3 (PSD-95 residues 302-393, without the α3 helix) (UniProt P31016 302-393).
T2 construct: PSD-95 third PDZ domain truncated of its ten C-terminal residues (α3 helix), residues 302-393 of the full PSD-95 protein; 15N-labelled for NMR; source: E. coli BL21/DE3, purified
T2 sequence (P31016 302-393, stated change not applied): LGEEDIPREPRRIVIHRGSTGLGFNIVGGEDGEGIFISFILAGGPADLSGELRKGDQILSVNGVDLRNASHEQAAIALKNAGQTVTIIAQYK
Described as above. The settings on record: both partners purified.

T1 sequence (P31016 302-403): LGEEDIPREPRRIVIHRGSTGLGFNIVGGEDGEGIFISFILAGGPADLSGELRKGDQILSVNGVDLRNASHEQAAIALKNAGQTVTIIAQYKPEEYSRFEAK

By Kd is commonly meant a measure of binding affinity in units of concentration. With “PSD-95 (DLG4/SAP-90) third PDZ domain, PDZ3, wild type”, in experiment [1], the equilibrium dissociation constant (Kd) is 0.45 µM and the ΔG is -8.7 kcal/mol. Also, the ΔG in experiment [2] was -8 kcal/mol.

For PSD-95 PDZ3 (from UniProt P78352), the Kd in experiment [3] is 3.6 µM; in experiment [4], 1 µM; in experiment [5], 14 µM; in experiment [6], 0.45 µM.

B1: KKETAV hexapeptide (peptide)
peptide: KKETAV
notes: residues numbered from 0 (C-terminal Val) to -5 (N-terminal Lys); also called KKETAV ligand; consensus hexapeptide; source: bought: Peptide 2.0 (USA)
As usually defined, the stoichiometry N is the number of molecules, sites or subunits per partner or assembly. As for B1, the “stoichiometry N” value in experiment [7] came out at 0.99. Moreover, in experiment [8], the Kd is 3.6 µM, the dH was -8.8 kcal/mol and the “stoichiometry N” value amounted to 0.9.
